The chains are these.
B2: Recombinant human cold-inducible RNA-binding protein (rhCIRP) (natural protein, UniProt Q14011-1 1-172, looked up)
chain: MASDEGKLFVGGLSFDTNEQSLEQVFSKYGQISEVVVVKDRETQRSRGFGFVTFENIDDAKDAMMAMNGKSVDGRQIRVDQAGKSSDNRSRGYRGGSAGGRGFFRGGRGRGRGFSRGGGDRGYGGNRFESRSGGYGGSRDYYSSRSQSGGYSDRSSGGSYRDSYDSYATHNE

In one test the target is MD2 (Homo sapiens) (UniProt Q9Y6Y9). Conditions: cited from earlier work.
The target in a further test is TLR4/MD2 (Homo sapiens) (UniProt O00206). Briefly: SPR. Conditions: cited from earlier work.
The next test has as its target TLR4 (Homo sapiens) (UniProt O00206). Conditions: cited from earlier work.
In test [1] the target is Recombinant human TLR4 (rhTLR4), Glu24-Lys631 (human, UniProt O00206 24-631). Briefly: SPR.
Test [2] addresses B2. Briefly: SPR.
For test [3], the target named is Recombinant human TLR4/MD2 complex (rhTLR4/MD2) (human, UniProt O00206 24-631; Q9Y6Y9 17-160). In words: SPR.
Test [4] deals with Recombinant human TLR2 (rhTLR2), Glu21-Leu590 (human, UniProt O60603 21-590). In words: SPR.
The target in test [5] is Recombinant human RAGE (rhRAGE), Ala23-Ala344 (human, UniProt Q15109 23-344). In words: SPR.
Chain of Recombinant human RAGE (rhRAGE), Ala23-Ala344 (Q15109 23-344): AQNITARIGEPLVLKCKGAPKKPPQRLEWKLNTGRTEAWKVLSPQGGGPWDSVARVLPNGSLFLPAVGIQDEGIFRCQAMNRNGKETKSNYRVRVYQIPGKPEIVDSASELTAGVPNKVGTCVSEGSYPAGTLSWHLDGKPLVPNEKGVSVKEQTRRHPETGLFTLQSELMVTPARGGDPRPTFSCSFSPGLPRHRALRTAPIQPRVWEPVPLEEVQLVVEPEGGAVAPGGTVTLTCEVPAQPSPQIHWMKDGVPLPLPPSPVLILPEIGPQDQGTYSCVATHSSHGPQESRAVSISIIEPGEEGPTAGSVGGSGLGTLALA

Chain of Recombinant human TLR4 (rhTLR4), Glu24-Lys631 (O00206 24-631): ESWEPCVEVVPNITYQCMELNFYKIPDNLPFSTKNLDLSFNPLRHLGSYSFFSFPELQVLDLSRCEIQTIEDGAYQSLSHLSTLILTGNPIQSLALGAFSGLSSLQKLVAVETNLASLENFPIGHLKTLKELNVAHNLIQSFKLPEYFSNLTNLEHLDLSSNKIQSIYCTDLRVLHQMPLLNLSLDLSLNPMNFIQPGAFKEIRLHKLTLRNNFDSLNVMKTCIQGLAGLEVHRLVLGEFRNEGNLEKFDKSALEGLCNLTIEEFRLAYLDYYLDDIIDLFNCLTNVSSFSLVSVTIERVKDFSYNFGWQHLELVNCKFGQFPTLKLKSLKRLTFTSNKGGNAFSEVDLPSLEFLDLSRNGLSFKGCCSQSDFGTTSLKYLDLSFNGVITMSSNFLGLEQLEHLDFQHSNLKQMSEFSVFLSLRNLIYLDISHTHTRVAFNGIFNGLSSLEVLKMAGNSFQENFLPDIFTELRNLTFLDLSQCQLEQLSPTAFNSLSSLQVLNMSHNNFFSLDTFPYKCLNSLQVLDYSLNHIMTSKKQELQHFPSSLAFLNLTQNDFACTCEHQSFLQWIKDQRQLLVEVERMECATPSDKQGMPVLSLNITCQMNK
Chain of Recombinant human TLR2 (rhTLR2), Glu21-Leu590 (O60603 21-590): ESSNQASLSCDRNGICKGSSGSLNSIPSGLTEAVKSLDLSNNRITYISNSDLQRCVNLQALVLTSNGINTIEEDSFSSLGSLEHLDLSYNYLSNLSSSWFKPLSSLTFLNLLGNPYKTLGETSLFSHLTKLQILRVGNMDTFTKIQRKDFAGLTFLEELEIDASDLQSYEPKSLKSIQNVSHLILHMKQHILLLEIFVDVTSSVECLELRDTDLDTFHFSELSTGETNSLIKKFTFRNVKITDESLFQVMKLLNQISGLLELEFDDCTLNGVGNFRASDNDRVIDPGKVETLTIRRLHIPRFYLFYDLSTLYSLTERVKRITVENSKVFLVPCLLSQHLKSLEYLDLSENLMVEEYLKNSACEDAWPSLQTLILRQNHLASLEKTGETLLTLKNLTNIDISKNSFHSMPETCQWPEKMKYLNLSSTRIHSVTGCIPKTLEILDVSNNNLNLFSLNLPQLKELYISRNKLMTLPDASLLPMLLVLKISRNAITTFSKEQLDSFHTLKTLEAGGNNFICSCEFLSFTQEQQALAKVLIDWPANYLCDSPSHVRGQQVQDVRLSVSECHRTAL
Chain of Recombinant human TLR4/MD2 complex (rhTLR4/MD2) (O00206 24-631, one chain of several): as the sequence (O00206 24-631) above
Chain of TLR4 (Homo sapiens) (O00206 24-631): as above
Chain of TLR4/MD2 (Homo sapiens) (O00206 24-839): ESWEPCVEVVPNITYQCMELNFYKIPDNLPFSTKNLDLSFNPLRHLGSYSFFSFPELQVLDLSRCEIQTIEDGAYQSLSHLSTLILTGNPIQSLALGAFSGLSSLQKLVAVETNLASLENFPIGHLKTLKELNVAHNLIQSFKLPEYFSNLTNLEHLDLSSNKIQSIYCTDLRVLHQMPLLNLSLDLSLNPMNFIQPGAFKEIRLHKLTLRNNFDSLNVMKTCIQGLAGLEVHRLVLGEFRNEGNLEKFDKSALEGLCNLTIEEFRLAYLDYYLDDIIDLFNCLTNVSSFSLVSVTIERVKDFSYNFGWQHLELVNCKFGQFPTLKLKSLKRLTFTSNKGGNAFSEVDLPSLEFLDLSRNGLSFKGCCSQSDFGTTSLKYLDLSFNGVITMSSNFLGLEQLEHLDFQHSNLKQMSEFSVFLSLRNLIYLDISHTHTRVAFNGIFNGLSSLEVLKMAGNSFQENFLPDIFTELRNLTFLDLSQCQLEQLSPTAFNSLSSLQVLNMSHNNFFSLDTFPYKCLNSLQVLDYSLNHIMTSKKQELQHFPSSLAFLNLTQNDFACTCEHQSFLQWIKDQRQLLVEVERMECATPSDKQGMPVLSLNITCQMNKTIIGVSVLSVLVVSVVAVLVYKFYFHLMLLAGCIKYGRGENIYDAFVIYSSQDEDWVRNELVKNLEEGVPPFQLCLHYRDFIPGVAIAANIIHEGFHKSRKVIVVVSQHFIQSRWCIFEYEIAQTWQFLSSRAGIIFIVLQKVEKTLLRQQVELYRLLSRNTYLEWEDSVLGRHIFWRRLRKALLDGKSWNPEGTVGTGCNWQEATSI

As to HMGB1 (from UniProt P09429), the Kd with MD2 (Homo sapiens) is 8 nM; with TLR4/MD2 (Homo sapiens) it was 1500 nM.
For MD2 (from UniProt Q9Y6Y9), the Kd with TLR4 (Homo sapiens) was 62.9 nM.

B1: Recombinant human MD2 (rhMD2), Glu17-Asn160 (natural protein, UniProt Q9Y6Y9 17-160, looked up)
chain: EAQKQYWVCNSSDASISYTYCDKMQYPISINVNPCIELKRSKGLLHIFYIPRRDLKQLYFNLYITVNTMNLPKRKEVICRGSDDDYSFCRALKGETVNTTISFSFKGIKFSKGKYKCVVEAISGSPEEMLFCLEFVILHQPNSN
In the case of B1, the values for the Kd in test [1] and in test [2] were 53.7 nM and 302 nM, respectively.
Take B2: the Kd in test [3] was found to be 239 nM; in test [4], 258 nM; in test [5], 33.1 nM; in test [1], 617 nM.

The values are drawn from paper PMC3826915 (Nature medicine, 2013).
